According to patent US20220332804A1 (CSL INNOVATION, published 2022):
Where a chain is given by its changes, count along the chain named.

Legend:
Test in all cases: SPR, KD relative to WT C2;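 also: biacore SPR at 37 °C, anti-C2 mAbs captured via immobilised goat anti-human IgG, C2 alanine or serine surface mutants as analytes, 1:1 model fitted, double-referenced sensograms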
human C2 P486A = molecular target: T1, human C2 P486A (human, UniProt P06681 21-752)
T1 sequence: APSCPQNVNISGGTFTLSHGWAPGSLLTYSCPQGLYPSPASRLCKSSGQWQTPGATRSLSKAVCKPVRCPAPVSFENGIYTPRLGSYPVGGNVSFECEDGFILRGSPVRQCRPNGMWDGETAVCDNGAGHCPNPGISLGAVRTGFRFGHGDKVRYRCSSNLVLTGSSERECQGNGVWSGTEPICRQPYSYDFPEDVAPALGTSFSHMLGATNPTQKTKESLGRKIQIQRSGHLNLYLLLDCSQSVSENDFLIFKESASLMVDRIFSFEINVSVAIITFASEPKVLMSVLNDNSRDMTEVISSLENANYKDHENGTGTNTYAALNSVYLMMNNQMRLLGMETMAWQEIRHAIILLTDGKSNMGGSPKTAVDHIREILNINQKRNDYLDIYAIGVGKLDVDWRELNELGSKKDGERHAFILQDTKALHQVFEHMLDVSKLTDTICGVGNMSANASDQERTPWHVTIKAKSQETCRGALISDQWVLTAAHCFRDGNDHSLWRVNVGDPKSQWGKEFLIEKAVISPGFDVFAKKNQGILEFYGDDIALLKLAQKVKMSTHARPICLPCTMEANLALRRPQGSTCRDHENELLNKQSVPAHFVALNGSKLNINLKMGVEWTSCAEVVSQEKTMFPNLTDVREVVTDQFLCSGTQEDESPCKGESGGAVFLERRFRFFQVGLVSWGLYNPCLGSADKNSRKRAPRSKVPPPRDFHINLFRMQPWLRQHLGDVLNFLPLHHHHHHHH

human C2 R510A = molecular target: T2, human C2 R510A (human, UniProt P06681 21-752)
T2 sequence: T1 sequence with A466P, R490A

human C2 E645A = molecular target: T3, human C2 E645A (human, UniProt P06681 21-752)
T3 sequence: T1 sequence with A466P, E625A

human C2 K485A = molecular target: T4, human C2 K485A (human, UniProt P06681 21-752)
T4 sequence: T1 sequence with K465A, A466P

B1: RF16-226 (antibody, human IgG4 S228P, lambda)
heavy: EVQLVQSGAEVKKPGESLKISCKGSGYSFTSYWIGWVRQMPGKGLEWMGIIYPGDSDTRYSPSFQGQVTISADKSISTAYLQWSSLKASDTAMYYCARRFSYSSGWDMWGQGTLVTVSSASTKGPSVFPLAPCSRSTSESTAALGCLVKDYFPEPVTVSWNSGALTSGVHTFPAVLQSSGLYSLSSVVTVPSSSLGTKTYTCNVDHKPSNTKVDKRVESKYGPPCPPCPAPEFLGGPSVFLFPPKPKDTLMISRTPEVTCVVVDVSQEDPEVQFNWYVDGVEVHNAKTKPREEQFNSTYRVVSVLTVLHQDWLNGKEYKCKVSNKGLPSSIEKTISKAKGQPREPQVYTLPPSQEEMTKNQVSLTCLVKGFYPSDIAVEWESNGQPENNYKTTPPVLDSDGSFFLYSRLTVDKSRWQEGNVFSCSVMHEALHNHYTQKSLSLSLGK
light: SYELTQPPSVSVSPGQTARITCSGDALTSKYVAWYQQKSGLAPLLVIYEDTRRPSGIPAKFSGSSSGSVATLTISGAHGDDEADYYCYSTDASGHQRVFGGGTKLTVLSQPKAAPSVTLFPPSSEELQANKATLVCLISDFYPGAVTVAWKADGSPVKAGVETTKPSKQSNNKYAASSYLSLTPEQWKSHRSYSCQVTHEGSTVEKTVAPTECS
notes: pH-dependent anti-C2 antibody from a phage display library; also called WT
Fold diff (human C2 P486A): 1 fold
Fold diff (human C2 R510A): 11 fold
Fold diff (human C2 E645A): 1 fold
Fold diff (human C2 K485A): 1 fold
